Each molecule was assayed against recombinant Der p 1 (mature, enzymatically active cysteine protease) (house dust mite) (UniProt P08176) (assay: not given).

Question: FDLN [tetrapeptide FDLN (first half of the cleavage site FDLN78p–A79pETN)] was tested. Which reduction of the initial Der p 1 activity (Boc-Gln-Ala-Arg-AMC hydrolysis) by tetrapeptide (10 mM) at pH 4 did it give?
Answer: 75%

Question: With LNAE [tetrapeptide LNAE (first half of the cleavage site LNAE80p–T1NAC)] as the molecule, how does the reduction of the initial Der p 1 activity (Boc-Gln-Ala-Arg-AMC hydrolysis) by tetrapeptide (10 mM) at pH 4 read?
Answer: 80%

Question: How did the reduction of the initial Der p 1 activity (Boc-Gln-Ala-Arg-AMC hydrolysis) by tetrapeptide (10 mM) at pH 4 turn out when KYVQ [tetrapeptide KYVQ (first half of the cleavage site KYVQ40p–S41pNGG)] was run?
Answer: 45%

Question: NKSY [tetrapeptide NKSY (first half of the cleavage site NKSY19p–A20pTFE)] was tested. Which reduction of the initial Der p 1 activity (Boc-Gln-Ala-Arg-AMC hydrolysis) by tetrapeptide (10 mM) at pH 4 did it give?
Answer: 30%

The molecules below were run against recombinant Der p 1 (mature, enzymatically active cysteine protease) (house dust mite) (UniProt P08176) (assay: enzyme inhibition kinetics; time-dependent inhibition of Der p 1 (5 nM) by propeptide (30–300 nM) at pH 7, fluorogenic substrate Boc-Gln-Ala-Arg-AMC; pre-steady-state kobs against propeptide concentration by linear regression gives KD Global, kon and koff; simple 1/1 stoichiometry assumed).

Question: Which results are given for “Der p 1 propeptide, wild type, full-length (1-80) (domain or fragment)”?
Answer: Kd: 7 nM; koff: 0.0078 s⁻¹; kon: 1.1e+06 M⁻¹ s⁻¹

Question: With “Der p 1 propeptide mutant E56pA, full-length (1-80) (domain or fragment)” as the molecule, how does the Kd read?
Answer: 5 nM

Question: And the koff?
Answer: 0.007 s⁻¹

Question: And the kon?
Answer: 1.5e+06 M⁻¹ s⁻¹

Question: What does the source list for “Der p 1 propeptide mutant K17pA, full-length (1-80) (domain or fragment)”?
Answer: Kd: 15 nM; koff: 0.007 s⁻¹; kon: 460000 M⁻¹ s⁻¹

Question: “Der p 1 propeptide mutant Y19pF, full-length (1-80) (domain or fragment)” was tested. Which Kd did it give?
Answer: 6 nM

Question: What about the koff of the same molecule?
Answer: 0.007 s⁻¹

Question: What about the kon of the same molecule?
Answer: 1.2e+06 M⁻¹ s⁻¹

Question: What does the source list for “Der p 1 propeptide mutant D51pA, full-length (1-80) (domain or fragment)”?
Answer: Kd: 37 nM; koff: 0.017 s⁻¹; kon: 440000 M⁻¹ s⁻¹

These molecules were tested against recombinant Der p 1 (mature, enzymatically active cysteine protease) (house dust mite) (UniProt P08176) (assay: enzyme inhibition kinetics; steady-state velocities of Der p 1 at each propeptide concentration, pH 7, substrate Boc-Gln-Ala-Arg-AMC at 160 µM; KD calculated by Equation (4) because initial and steady-state velocities differed little).

Question: With “Der p 1 propeptide double mutant D51pA/E56pA, full-length (1-80) (domain or fragment)” as the molecule, how does the Kd read?
Answer: 130 nM

Source: article PMC5454996
